B1: antibody #1: sCD28 binding (sweeping) antibody; heavy chain SEQ ID NO: 42, light chain SEQ ID NO: 44 (antibody)
heavy: QIQLVQSGPELKKPGETVKISCKASGYTLTNYGMNWVKQAPGKGLKWMGWINTYTGKPTYVDDFKGRFAFSLETSASTAYLQINNLKNEDTATYFCARGDANQQFAYWGQGTLVTVSAAKTTPPSVYPLAPGSAAQTNSMVTLGCLVKGYFPEPVTVTWNSGSLSSGVHTFPAVLQSDLYTLSSSVTVPSSTWPSETVTCNVAHPASSTKVDKKIVPRDCGCKPCICTVPEVSSVFIFPPKPKDVLTITLTPKVTCVVVDISKDDPEVQFSWFVDDVEVHTAQTQPREEQFNSTFRSVSELPIMHQDWLNGKEFKCRVNSAAFPAPIEKTISKTKGRPKAPQVYTIPPPKEQMAKDKVSLTCMITDFFPEDITVEWQWNGQPAENYKNTQPIMDTDGSYFVYSKLNVQKSNWEAGNTFTCSVLHEGLHNHHTEKSLSHSPGK
light: DIKMTQSPSSMYASLGERVTITCKASQDINSYLSWFQQKPGKSPKTLIYRANRLVDGVPSRFSGSGSGQDYSLTISSLEYDDMGIYYCLQYDEFPPTFGAGTKLELKRADAAPTVSIFPPSSEQLTSGGASVVCFLNNFYPKDINVKWKIDGSERQNGVLNSWTDQDSKDSTYSMSSTLTLTKDEYERHNSYTCEATHKTSTSPIVKSFNRNEC
B2: CD80-Fc: extracellular domain of CD80 fused to an Fc moiety (protein)
chain: VIHVTKEVKEVATLSCGHNVSVEELAQTRIYWQKEKKMVLTMMSGDMNIWPEYKNRTIFDITNNLSIVILALRPSDEGTYECVVLKYEKDAFKREHLAEVTLSVKADFPTPSISDFEIPTSNIRRIICSTSGGFPEPHLSWLENGEELNAINTTVSQDPETELYAVSSKLDFNMTTNHSFMCLIKYGHLRVNQTFNWNTTKQEHFPDN
modifications: left off: a dimerising Fc or GST
notes: extracellular domain of CD80 fused to an Fc moiety
B3: antibody #3: sCD28 binding (sweeping) antibody; heavy chain SEQ ID NO: 50, light chain SEQ ID NO: 52 (antibody)
heavy: EVQLQQFGAELVKPGASVKISCKASGYTFTDYNMDWVKQSHGKSLEWIGDINPNYDSTAYNQKFMGKATLTVDKSSNTAYMELRSLTSEDTAVYYCARSSPYYDSNHFDYWGQGTSLTVSSAKTTPPSVYPLAPGSAAQTNSMVTLGCLVKGYFPEPVTVTWNSGSLSSGVHTFPAVLQSDLYTLSSSVTVPSSTWPSETVTCNVAHPASSTKVDKKIVPRDCGCKPCICTVPEVSSVFIFPPKPKDVLTITLTPKVTCVVVDISKDDPEVQFSWFVDDVEVHTAQTQPREEQFNSTFRSVSELPIMHQDWLNGKEFKCRVNSAAFPAPIEKTISKTKGRPKAPQVYTIPPPKEQMAKDKVSLTCMITDFFPEDITVEWQWNGQPAENYKNTQPIMDTDGSYFVYSKLNVQKSNWEAGNTFTCSVLHEGLHNHHTEKSLSHSPGK
light: QIVLTQSPAIMSASPGEKVTMTCSARSSINYMHWFQQKPGTSPKRWIYDTSKLASGVPARFSGSGSGTSYSLTISNMEAEDAATYYCHQRNSYPFTFGSGTKLEIKRADAAPTVSIFPPSSEQLTSGGASVVCFLNNFYPKDINVKWKIDGSERQNGVLNSWTDQDSKDSTYSMSSTLTLTKDEYERHNSYTCEATHKTSTSPIVKSFNRNEC

Tests used:
human PBMCs = test: Soluble CD28 generation by SEB or CMV stimulated PBMCs, human CD28 ELISA; format: cell-based; conditions: for sCD28 levels detected with antibodies of the invention: stimulated cells with protease inhibitors, sandwich ELISA; for amount of sCD28 in culture: PBMCs stimulated with SEB or CMV, TAPI-1 and GM6001 protease inhibitor cocktail
Method: (§1) ELISA—Commercial ELISA kits were used for quantitation of the amount of human interferon-gamma (Biolegend, Cat. No. 430103), human interleukin 2 (Biolegend, Cat. No. 431802), human interleukin 6 (Biolegend, Cat. No. 430502), human interleukin 10 (Biolegend, Cat. No. 430603), human […] beta 1 (Biolegend, Cat. No. 436708), human interleukin beta 1 (Biolegend, Cat. No. 437004) and human CD28 (R&D system, Cat. No. DY342). Cell Proliferation and viability (MTT assay) was conducted according to manufacturer instructions (Roche, cat #11465007001). Kynurenine (IDO activity) ELISA kit was conducted according to manufacturer instructions (ImmuSmo Cat #BA E-2200).
(§2) Protease Inhibitors—Protease inhibitors were added at the indicated concentrations at the start of each experiment. In week long assays another portion of the inhibitors was added after 3 days at the final concentration. […] Where mentioned the protease cocktail was composed with a mixture of TAPI-1 and GM6001 at equimolar ratio.
SEB or CMV activation of PBMCs for the generation of soluble CD28—0.3×10^6 PBMCs were stimulated with 0.5 ng/mL SEB (Sigma, Cat. No. S4881) for 5-7 days at 37° C. with/without the indicated concentration of various protease inhibitors in 48 well plate. Alternatively, 0.1×10^6 PBMCs were stimulated with 0.5 ng/mL SEB in 96 well plate format assay. For CMV stimulation 0.5×10^6 PBMCs were stimulated with 0.5 μg/mL CMV peptivator (Milteny Biotec, Cat. No. 130-093-435) for 2-5 days at 37° C. with/without the indicated concentration of various protease inhibitors in a 96 well plate. For continuous shedding experiments PBMC were stimulated with SEB or CMV in 24 well plate for 24 hr, cells were taken and washed three times with RPMI without stimulant and plated again in a 96 well plate. Samples were taken at indicated times and put under freezing conditions until examination for soluble CD28.

Jurkat T cell line = test: Soluble CD28 generation by PHA activated Jurkat T cell line, CD28 ELISA; format: cell-based, human; conditions: PHA 1-4 μg/mL, TAPI-1 and GM6001 cocktail 0.5-2 μM
Method: as §1, §2
(§3) PHA activation of CD4 T cells or Jurkat T cell line for the generation of soluble CD28—1×10^5 Jurkat cells or CD4 T cells were incubated with the indicated concentration of Phytohemagglutinin (Sigma, Cat. No. L8902) and various protease inhibitors for additional 5 (Jurkat) or 7 days (CD4 T cells).

human CD4 T cells = test: Soluble CD28 generation by PHA activated CD4 T cells, CD28 ELISA; format: cell-based; conditions: PHA 1-4 μg/mL, TAPI-1 and GM6001 cocktail 0.5-2 μM
Method: as §1, §2, §3

[1] = tested on: isolated CD3 human T cells; test: CD3 T cells stimulation with anti-CD3 OKT3, IFN gamma secretion; format: cell-based; conditions: for IFNγ secretion (agonism): anti-CD3 stimulation, CD28.2 2.0 μg/mL, antibodies 0.1-10 μg/mL
Method: T cells stimulation with OKT3—0.1×10^6 isolated CD3 T cells (from healthy donors) were stimulated with indicated amount of anti-CD3 clone OKT3 for 48-72 hr at 37° C. When stated recombinant human CD80-Fc (2 μg/mL, R&D system) was added in soluble form. Antibodies to CD28 or controls were added at the indicated concentration in soluble form.
CD80 is one of the two main ligands for mCD28 along with CD86. The extracellular domain of CD80 fused to an Fc moiety has been used as an immune stimulatory molecule and is under investigation as a cancer therapy. In order to examine the effect of sCD28 on CD80-Fc efficacy, isolated CD3 human T cells were stimulated with plate bound anti-CD3 antibody (OKT3, 2 μg/mL) in the presence of 2 μg/mL soluble recombinant human CD80-Fc.

recombinant human CD28 = target: T1, recombinant human CD28 (Homo sapiens, UniProt P10747); test: Direct CD28 ELISA on recombinant human CD28; format: binding
T1 construct: recombinant human CD28 lacking the transmembrane and cytoplasmic domains; purchased R&D 342-CD

mCD28 [2] = target: T2, mCD28 (Homo sapiens, UniProt P10747); test: CD86 blocking FACS on HEK293 cells stably transfected with human CD28; format: binding; conditions: CD86-Fc 5 μg/mL; antibody 20 μg/mL
T2 construct: expressed in transfected cells
Method: CD86 blocking FACS—0.5×10^6 HEK293 cells stably transfected with human CD28 were incubated with 5 μg/mL CD86-Fc (R&D systems, Cat. No. 141-B2) without or with anti CD28 antibodies (20 μg/mL) for 30 min in room temperature. Cells were washed and taken for secondary binding using anti-human heavy and light chains antibody conjugated to fluorophore at 1:5000 dilution for 20 min on ice.

mCD28 [3] = target: T2, mCD28; test: FACS binding to mCD28 on naïve CD3 T cells; conditions: antibody 20 μg/mL
Method: Flow Cytometry—Generally, cells were kept on ice during all steps. Prior to staining, 5×10^5 cells were blocked with 50 μg/mL human IgG (Sigma, Cat. No. 14506) in FACS buffer (PBS with 0.1% BSA) for 15 min. Antibodies were used at concentrations recommended by the manufacturer and incubated for 30 min. in the dark. Incubations were done in a volume of 100 μL in 96-well U bottom plates. Cells were washed twice with 200 μL of FACS buffer and transferred to FACS tubes in 150 μL of FACS buffer for analysis. Cells were analyzed on a Gallios Flow Cytometer (Beckman Coulter) using the Kaluza for Gallios Flow Cytometry Acquisition Software.
Lastly, the ability of antibodies #1-3 to bind to mCD28 at all was examined. While it is not essential that a sCD28 antibody not bind mCD28 it is advantageous. Such an antibody could be used for specific detection of the soluble protein, and if used therapeutically would have no effect on the membranal form. Naïve isolated CD3 T cells were evaluated by FACs to assay mCD28 binding. Cells were incubated with antibodies #1-3 (20 μg/mL dark grey histograms) or isotype controls (mIgG, 20 μg/mL, light grey histograms). Binding detection was performed with Alexa Fluor 647-conjugated goat anti mouse secondary antibody.

sCD28 = test: Simulated sweeping of soluble CD28 from plasma with antibody coated magnetic beads; design: species or system human; conditions: for sCD28 levels in plasma after beads: about 1.5 μg on beads
Method: Simulated sweeping of soluble CD28 from plasma of cancer patient. Antibodies or recombinant proteins were coated on tosyl-activated magnetic beads (Invitrogen, Cat. No. DY-14203) as described by manufacturer protocol. […] The mixture was incubated in a thermomixer for 2 hr, 1000 RPM at 37° C., followed by removal of the beads using a DynaMag magnet (Invitrogen, Cat. No. 12321D) and the samples were examined using CD28 specific ELISA.
Varying amounts (0.125-2 μg) of antibodies #1 and #2 were loaded onto tosyl-activated magnetic beads according to the manufacturer's protocol (Thermo Fisher Scientific). The loaded beads were then added to plasma samples from a cancer patient, and the mixture was incubated in a thermomixer at 37° C. for 2 hours at 1000 RPM. The beads were isolated and removed from the plasma with a magnet and the amount of sCD28 remaining in the serum was measured by ELISA.
Antibody #1 was further tested on various cancer samples (melanoma, colorectal and ovarian) and compared to three B7 molecules which are known ligands of CD28. About 1.5 μg of antibody #1, CD80, CD86 and ICOSL were each loaded onto tosyl-activated magnetic beads and the beads were mixed with plasma as before. A colorectal sample (FIG. 16C), as well as two melanoma samples (FIG. 16D-E), an ovarian sample (FIG. 16F) and a sample from a healthy donor (FIG. 16G) were all tested.

| Molecule | sCD28 levels detected with antibodies of the invention (human PBMCs) | amount of sCD28 in culture (human PBMCs) | amount of sCD28 in supernatant (Jurkat T cell line) | amount of sCD28 in supernatant (human CD4 T cells) | IFNγ secretion (agonism) [1] | CD86 binding to mCD28 (mCD28 [2]) | binding to mCD28 on the cell surface (mCD28 [3]) | also measured |
| --- | --- | --- | --- | --- | --- | --- | --- | --- |
| CNC(=O)[C@@H](NC(=O)[C@H](CCCc1ccccc1)[C@H](C)N(O)C=O)C(C)(C)C [GI254023X] | Lower levels of sCD28 | – | – | – | – | – | – | sCD28 release from activated immune cells (human PBMCs; PBMCs, SEB 1 ng/mL, inhibitor 0.01-1 μM): almost complete inhibition of sCD28 release |
| CC(C)C[C@H](CC(=O)NO)C(=O)N[C@@H](Cc1ccc2ccccc2c1)C(=O)N[C@@H](C)C(=O)NCCN [TAPI-1] | Lower levels of sCD28 | diminish the amount of sCD28 in a dose dependent manner | diminished the amount of sCD28 | diminished the amount of sCD28 | – | – | – | – |
| CNC(=O)[C@H](Cc1c[nH]c2ccccc12)NC(=O)[C@@H](CC(=O)NO)CC(C)C [GM6001] | – | diminish the amount of sCD28 in a dose dependent manner | diminished the amount of sCD28 | diminished the amount of sCD28 | – | – | – | – |
| B1 | – | – | – | – | no effect on IFN secretion | none of antibody #1 (FIG. 15B), antibody #2 (FIG. 15C), or antibody #3 (FIG. 15D) blocked binding of CD86 to mCD28 | bound mCD28 | detection compared to CD28.2 (recombinant human CD28): nearly ten-times greater detection; binding to sCD28 (recombinant human CD28; immobilized recombinant human sCD28): much stronger binding to sCD28; comparison with CD80, CD86 and ICOSL (sCD28; about 1.5 μg each on beads): superior to the other three molecules tested; sCD28 levels in plasma after beads (sCD28; all cases): at or below the levels observed in the healthy sample; sCD28 levels in plasma after beads (sCD28; all samples except one melanoma sample): nearly undetectable levels; removal of sCD28 from plasma (sCD28; cancer patient plasma, 0.125-2 μg antibody on beads, 37° C. 2 hours): capable of binding and removing sCD28 from plasma; reduction of sCD28 (sCD28; one of the melanoma samples (FIG. 16D)): greater than 50% |
| B2 | – | – | – | – | – | – | – | IFN gamma secretion ([1]; plate bound OKT3 2 μg/mL, CD80-Fc 2 μg/mL): increased IFN gamma secretion |
| B3 | – | – | – | – | no effect on IFN secretion | none of antibody #1 (FIG. 15B), antibody #2 (FIG. 15C), or antibody #3 (FIG. 15D) blocked binding of CD86 to mCD28 | do not bind CD28 on the cell surface | – |

From patent publication US12139534B2, “Methods and compositions for decreasing soluble immune receptor CD28” (BIOND BIOLOGICS LTD., priority 2018, dated 2024)
